Assay results published in patent US11814435B2, “Therapeutic antibodies and their uses” (PFIZER INC., priority 2015, dated 2023).
Positions count from the first letter of the chain named. Blank lines part the entries; values can stand above or below the molecule they belong to.

What was measured:
[1] = target: T1, hBCMA (human BCMA) (Homo sapiens, UniProt Q02223); assay: Kinetics and affinity of hBCMA/human IgG interactions by SPR (Bio-Rad Proteon XPR36); type: binding; details: huBCMA, 37° C.
T1 sequence (Q02223 1-184): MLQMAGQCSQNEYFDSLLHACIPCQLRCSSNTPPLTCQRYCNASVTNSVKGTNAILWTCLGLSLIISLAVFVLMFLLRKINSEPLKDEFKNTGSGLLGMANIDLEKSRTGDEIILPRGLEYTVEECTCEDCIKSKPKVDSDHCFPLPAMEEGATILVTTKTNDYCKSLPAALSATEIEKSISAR
Experimental: All experiments were performed on a Bio-Rad Proteon XPR36 surface Plasmon resonance biosensor (Bio-Rad, Hercules, Calif.). An array of anti-BCMA antibodies was prepared using an amine-coupling method on a Bio-Rad GLC Sensor Chip similar to that described in Abdiche, et al., Anal. Biochem. 411, 139-151 (2011). The analysis temperature for the immobilization was 25° C. and the running buffer was HBS-T+(10 mM HEPES, 150 mM NaCl, 0.05% Tween-20, pH 7.4). Channels were activated in the analyte (horizontal) direction by injecting a mixture of 1 mM ECD and 0.25 mM NHS for 3 minutes at a flow rate of 30 μL/min. IgGs were immobilized on the activated spots by injecting them in the ligand (vertical) direction at 20 μg/mL in 10 mM Acetate pH 4.5 buffer for 1.5 minutes at […]. The activated surfaces were blocked by injecting 1M ethanolamine, pH 8.5 in the analyte direction for 3 minutes at 30 μL/min.
The analysis temperature for the hBCMA binding analysis was 37° C. or 25° C. in a running buffer of HBS-T+, supplemented with 1 mg/mL BSA. A kinetic titration method was employed for the interaction analysis as described in Abdiche, et al. The hBCMA (human BCMA) analyte was injected in the analyte direction using a series of injections from low to high concentration. The concentrations used were 0.08 nM, 0.4 nM, 2 nM, 10 nM and 50 nM (a 5-membered series, with a 5-fold dilution factor and top concentration of 50 nM). The association time for a given analyte dilution was two minutes. Immediately after the 50 nM hBCMA injection, dissociation was monitored for 2 hours. Prior to the hBCMA analyte injections, buffer was injected 5 times using the same association and dissociation times at the hBCMA analyte cycles to prepare a buffer blank sensorgram for double-referencing purposes (double referencing as described in Myszka, J. Mol. Recognit. 12, 279-284 (1999).
The sensorgrams were double-referenced and fit to a 1:1 Langmuir with mass transport kinetic titration model in BIAevaluation Software version 4.1.1 (GE Lifesciences, Piscataway, N.J.). The sensorgrams and fits are shown in FIG. 1, and the kinetics and affinity parameters for various anti-BCMA antibodies of the present invention are shown in Tables 6A-6C.

[2] = test system: cyBCMA; assay: Kinetics and affinity of cyBCMA/human IgG interactions by SPR (Bio-Rad Proteon XPR36); type: binding, cynomolgus; details: 37° C.

ka (1/Ms) huBCMA @ 37° C. [1]: 3.52e+06 M⁻¹ s⁻¹
kd (1/s) huBCMA @37° C. [1]: 0.00189 s⁻¹
kd (1/s) cyBCMA @37° C. [2]: 0.00376 s⁻¹
B1: L3.PY/L1.FF/H3.TAQ: anti-BCMA antibody (antibody, V domains shown)
VH: EVQLLESGGGLVQPGGSLRLSCAASGFTFGSYAMTWVRQAPGKGLEWVSAISGSGGNTFYADSVKGRFTISRDNSKNTLYLQMNSLRAEDTAVYYCTRVSPIAAQMDYWGQGTLVTVSS
VL: EIVLTQSPGTLSLSPGERATLSCRASQSVSSFFLAWYQQKPGQAPRLLIYGASSRATGIPDRFSGSGSGTDFTLTISRLEPEDFAVYYCQHYPYPPSFTFGQGTKVEIK
ka (1/Ms) cyBCMA @ 37° C. [2]: 2.32e+06 M⁻¹ s⁻¹

ka (1/Ms) huBCMA @ 37° C. [1]: 3.48e+06 M⁻¹ s⁻¹
kd (1/s) huBCMA @37° C. [1]: 0.0014 s⁻¹
kd (1/s) cyBCMA @37° C. [2]: 0.00449 s⁻¹
B2: L3.PY/L1.FF/H2.QL: anti-BCMA antibody (antibody, V domains shown)
VH: B1 VH with S63Q, V64L, T97A, A104S, Q105G
VL: B1 VL
ka (1/Ms) cyBCMA @ 37° C. [2]: 2.36e+06 M⁻¹ s⁻¹

ka (1/Ms) huBCMA @ 37° C. [1]: 3.49e+06 M⁻¹ s⁻¹
kd (1/s) huBCMA @37° C. [1]: 0.00219 s⁻¹
kd (1/s) cyBCMA @37° C. [2]: 0.00417 s⁻¹
B5: L3.PY/L1.FF/H2.HA: anti-BCMA antibody (antibody, V domains shown)
VH: B1 VH with G53H, S54A, T97A, A104S, Q105G
VL: B1 VL
ka (1/Ms) cyBCMA @ 37° C. [2]: 2.33e+06 M⁻¹ s⁻¹

ka (1/Ms) huBCMA @ 37° C. [1]: 3.47e+06 M⁻¹ s⁻¹
kd (1/s) huBCMA @37° C. [1]: 0.00177 s⁻¹
kd (1/s) cyBCMA @37° C. [2]: 0.00421 s⁻¹
B7: L3.PY/L1.FF/H2.QR: anti-BCMA antibody (antibody, V domains shown)
VH: B1 VH with S63Q, V64R, T97A, A104S, Q105G
VL: B1 VL
ka (1/Ms) cyBCMA @ 37° C. [2]: 2.55e+06 M⁻¹ s⁻¹

Second part, the molecule before the results:

B3: L3.PY/L1.AH/H2.YQ: anti-BCMA antibody (antibody, V domains shown)
VH: B1 VH with G53Y, S54Q, T97A, A104S, Q105G
VL: B1 VL with S31A, F32H, F33Y
ka (1/Ms) huBCMA @ 37° C. [1]: 2.42e+06 M⁻¹ s⁻¹
kd (1/s) huBCMA @37° C. [1]: 0.00193 s⁻¹
ka (1/Ms) cyBCMA @ 37° C. [2]: 1.58e+06 M⁻¹ s⁻¹
kd (1/s) cyBCMA @37° C. [2]: 0.00431 s⁻¹

B4: L3.PY/L1.AH/H2.LT: anti-BCMA antibody (antibody, V domains shown)
VH: B1 VH with G53L, S54T, T97A, A104S, Q105G
VL: B1 VL with S31A, F32H, F33Y
ka (1/Ms) huBCMA @ 37° C. [1]: 3.16e+06 M⁻¹ s⁻¹
kd (1/s) huBCMA @37° C. [1]: 0.00123 s⁻¹
ka (1/Ms) cyBCMA @ 37° C. [2]: 2.19e+06 M⁻¹ s⁻¹
kd (1/s) cyBCMA @37° C. [2]: 0.00296 s⁻¹

B6: L3.PY/L1.AH/H3.TAQ: anti-BCMA antibody (antibody, V domains shown)
VH: B1 VH
VL: B1 VL with S31A, F32H, F33Y
ka (1/Ms) huBCMA @ 37° C. [1]: 3.27e+06 M⁻¹ s⁻¹
kd (1/s) huBCMA @37° C. [1]: 0.00119 s⁻¹
ka (1/Ms) cyBCMA @ 37° C. [2]: 2.28e+06 M⁻¹ s⁻¹
kd (1/s) cyBCMA @37° C. [2]: 0.00302 s⁻¹

B8: L3.PY/L1.AH/H3.AE: anti-BCMA antibody (antibody, V domains shown)
VH: B1 VH with T97A, Q105E
VL: B1 VL with S31A, F32H, F33Y
ka (1/Ms) huBCMA @ 37° C. [1]: 3.32e+06 M⁻¹ s⁻¹
kd (1/s) huBCMA @37° C. [1]: 0.00173 s⁻¹
ka (1/Ms) cyBCMA @ 37° C. [2]: 2.25e+06 M⁻¹ s⁻¹
kd (1/s) cyBCMA @37° C. [2]: 0.00356 s⁻¹

B9: L3.PY/L1.AH/H2.QL: anti-BCMA antibody (antibody, V domains shown)
VH: B1 VH with S63Q, V64L, T97A, A104S, Q105G
VL: B1 VL with S31A, F32H, F33Y
ka (1/Ms) huBCMA @ 37° C. [1]: 3.04e+06 M⁻¹ s⁻¹
kd (1/s) huBCMA @37° C. [1]: 0.0016 s⁻¹
ka (1/Ms) cyBCMA @ 37° C. [2]: 2.62e+06 M⁻¹ s⁻¹
kd (1/s) cyBCMA @37° C. [2]: 0.00955 s⁻¹

B10: L3.PY/L1.AH/H2.HA: anti-BCMA antibody (antibody, V domains shown)
VH: B1 VH with G53H, S54A, T97A, A104S, Q105G
VL: B1 VL with S31A, F32H, F33Y
ka (1/Ms) huBCMA @ 37° C. [1]: 3.33e+06 M⁻¹ s⁻¹
kd (1/s) huBCMA @37° C. [1]: 0.00181 s⁻¹
ka (1/Ms) cyBCMA @ 37° C. [2]: 2.58e+06 M⁻¹ s⁻¹
kd (1/s) cyBCMA @37° C. [2]: 0.00439 s⁻¹
